From US20120195879A1 (published 2012)

Molecular target: T1, keyhole limpet hemocyanin (multimeric high molecular weight KLH) (Megathura crenulata (keyhole limpet), UniProt Q10583 17-3414; Q10584 20-3421)
T1 construct: also called mcKLH; Multimeric KLH
Experiment: SPR (BIAcore 2000), antibody captured on anti-human IgG Fc surface, multimeric KLH injected; apparent constants
Procedure: Multimeric high molecular weight keyhole limpet hemocyanin (KLH) was from Pierce (Rockford, Ill.). Anti-human IgG, Fcγ-specific antibody was from Jackson ImmunoResearch Laboratories, Inc. (West Grove, Pa.). BIACore 2000, research grade sensor chip CM5, surfactant P-20 (polyoxyethylenesorbitan), HBS-EP (10 mM HEPES, 0.15M NaCl, 3.4 mM EDTA, 0.005% P-20, pH 7.4), amine coupling reagents, 10 mM acetate, pH 4.5, and 10 mM glycine, pH 1.5 were from BIACore, Inc. (Piscataway, N.J.). Phosphate-buffered saline (PBS, 1×, no calcium chloride, no magnesium chloride) was from Invitrogen (Carlsbad, Calif.). Bovine serum albumin (BSA, fraction V, IgG free) was from Sigma (St. Louis, Mo.).
Anti-KLH antibody wase captured on individual flow cells, followed by injection of either sample buffer or KLH, ranging in concentration from 0.19-100 nM. To prepare dilutions of the multimeric high molecular weight KLH, an average molecular weight of 5,000,000 daltons was used. Following sample buffer or antigen injection, each surface was regenerated by two injections of 10 mM glycine, pH 1.5 to dissociate captured antibody from the immobilized anti-human Fc surfaces. BIAevaluation software was used to determine apparent kinetic parameters for binding of KLH to captured anti-KLH antibodies.

B1: anti-KLH antibody (human IgG1, clone 120.6.1) (antibody, V domains shown)
VH: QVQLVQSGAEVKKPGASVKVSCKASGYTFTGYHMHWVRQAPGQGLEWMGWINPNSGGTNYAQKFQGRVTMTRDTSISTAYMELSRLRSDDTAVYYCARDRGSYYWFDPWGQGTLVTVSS
VL: DIQMTQSPSSLSASVGDRVTITCRASQGIRNDLGWYQQKPGKAPKRLIYAASSLQSGVPSRFSGSGSGTEFTLTISSLQPEDFATYYCLQHNSYPLTFGGGTKVEIK
notes: also called IgG1 (120.6.1); anti-KLH 120.6.1
Kd: 0.2 nM | koff: 2.5e-05 s⁻¹ | kon: 120000 M⁻¹ s⁻¹
